Measured values as given in PMC6484772, “S100A3 a partner protein regulating the stability/activity of RARα and PML-RARα in cellular models of breast/lung cancer and acute myeloid leukemia” (Oncogene, 2018).

Target: T1, GST-RARα (UniProt P10276 1-462)
T1 construct: full-length RARα; also called GST-tagged full-length RARα; source: GST-tagged recombinant protein
T1 sequence (looked up): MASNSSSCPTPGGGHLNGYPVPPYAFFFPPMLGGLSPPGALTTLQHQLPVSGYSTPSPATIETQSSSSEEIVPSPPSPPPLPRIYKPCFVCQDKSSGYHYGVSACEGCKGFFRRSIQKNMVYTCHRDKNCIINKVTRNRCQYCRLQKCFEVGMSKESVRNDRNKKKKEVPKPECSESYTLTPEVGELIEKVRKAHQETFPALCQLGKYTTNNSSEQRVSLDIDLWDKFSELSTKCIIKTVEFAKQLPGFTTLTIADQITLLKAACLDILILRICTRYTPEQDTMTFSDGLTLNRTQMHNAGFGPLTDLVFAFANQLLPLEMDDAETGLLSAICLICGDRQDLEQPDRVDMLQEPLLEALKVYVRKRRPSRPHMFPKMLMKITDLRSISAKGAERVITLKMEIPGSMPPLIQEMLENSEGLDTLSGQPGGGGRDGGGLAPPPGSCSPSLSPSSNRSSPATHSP
Test: far-Western, overlay or dot blot; S100A3 immunoprecipitated from extracts of transfected COS-7 cells with anti-S100A3 beads, resolved and blotted; probed with GST-tagged RARα recombinant proteins; developed with an anti-GST antibody
Settings: both partners purified

binding result: binds
B1: S100A3 (over-expressed in COS-7) (natural protein, human, UniProt P33764 1-101, looked up)
chain: MARPLEQAVAAIVCTFQEYAGRCGDKYKLCQAELKELLQKELATWTPTEFRECDYNKFMSVLDTNKDCEVDFVEYVRSLACLCLYCHEYFKDCPSEPPCSQ
notes: protein S100-A3; source: COS-7, transiently transfected (pcDNA3 expression plasmid for the S100A3 cDNA), in cell extract; immunoprecipitated with anti-S100A3 for the far-western
